{"source": "patent US8034904B2", "about": "“Anti-IGF-I receptor antibody” (Immunogen Inc., priority 2002, dated 2011)", "key": {"human IGF-I receptor": {"tested_on": "human IGF-I receptor", "assay": "FACS binding to cells overexpressing human IGF-I receptor", "details": "EM164 50-100 nM", "description": "Incubation of EM164 antibody (50-100 nM) in 100 μL cold FACS buffer (1 mg/mL BSA in Dulbecco's MEM medium) was performed using cells overexpressing IGF-I receptor and using cells overexpressing insulin receptor (2×10^5 cells/mL) in a round-bottom 96-well plate for 1 h. The cells were pelleted by centrifugation and washed with cold FACS buffer by gentle flicking, followed by incubation with goat-anti-mouse-IgG-antibody-FITC conjugate (100 μL; 10 μg/mL in FACS buffer) on ice for 1 h. The cells were pelleted, washed, and resuspended in 120 μL of 1% formaldehyde solution in PBS. The plate was analyzed using a FACSCalibur reader (BD Biosciences)."}, "[1]": {"tested_on": "SaOS-2 (osteosarcoma) cells", "assay": "Growth and survival of SaOS-2 cells (MTT assay)", "format": "cell-based, human", "description": "(§1) Several human tumor cell lines were tested in serum-free conditions for their growth and survival response to IGF-I. These cell lines were treated with EM164 antibody in the presence of IGF-I, IGF-II, or serum, and their growth and survival responses were measured using an MTT assay after 2-4 days. Approximately 1500 cells were plated in a 96-well plate in regular medium with serum, which was replaced with serum-free medium the following day (either serum-free RPMI medium supplemented with transferrin and BSA, or phenol-red free medium as specified by Dufourny, B. et al., 1997, J. Biol. Chem., 272, 31163-31171). After one day of growth in serum-free medium, the cells were incubated with about 75 μL of 10 μg/mL antibody for 30 min.-3 h, followed by the addition of 25 μL of IGF-I (or IGF-II or serum) solution to obtain a final concentration of 10 ng/mL IGF-I, or 20 ng/mL IGF-II, or 0.04-10% serum. In some experiments, the cells were stimulated first with IGF-I for 15 min before the addition of EM164 antibody, or both IGF-I and EM164 antibody were added together. The cells were then allowed to grow for another 2-3 days. A solution of MTT (3-(4,5)-dimethylthiazol-2-yl)-2,5-diphenyltetrazolium bromide; 25 μL of a 5 mg/mL solution in PBS) was then added and the cells were returned to the incubator for 2-3 h. The medium was then removed and replaced by 100 μL DMSO, mixed, and the absorbance of the plate was measured at 545 nm."}, "[2]": {"tested_on": "IGF-I receptor of goat fibroblast cells", "assay": "Immunoprecipitation of IGF-I receptor from goat fibroblast cells", "format": "binding", "source_text": "A Western blot of the EM164 antibody immunoprecipitate was detected using a rabbit polyclonal anti-IGF-I receptor beta chain (C-terminus) antibody (Santa Cruz Biotechnology) and a goat-anti-rabbit-IgG-antibody-horseradish peroxidase conjugate, followed by washes and enhanced chemiluminescence (ECL) detection."}, "[3]": {"target": "T1, IGF-I receptor on MCF-7 cells (Homo sapiens, UniProt P08069)", "T1 construct": "human breast cancer MCF-7 cells, which expressed IGF-I receptor; endogenous in cells; host or cells: MCF-7 human breast cancer cells", "assay": "IGF-I displacement assay in MCF-7 cells", "format": "cell-based", "description": "(or at 4° C.) for 1 to 2 h. […] (or at 4° C.) for 30 min to 4 h. Cells were then washed with PBS and lysed in lysis buffer containing 1% NP-40 at 4° C."}, "MCF-7 cells": {"tested_on": "MCF-7 cells", "assay": "Cell cycle analysis of MCF-7 cells (propidium iodide, flow cytometry)", "format": "cell-based, human", "details": "IGF-I 20 ng/mL with or without EM164 20 μg/mL, 1 day", "description": "The EM164 antibody caused growth arrest of cells in G0/G1 phase of cell cycle and abrogated the mitogenic effect of IGF-I. For cell cycle analysis, MCF-7 cells were treated with IGF-I (20 ng/mL) in the presence or absence of EM164 (20 μg/mL) for 1 day and then analyzed by propidium iodide staining and flow cytometry."}, "Akt and Erk1/2": {"tested_on": "Akt and Erk1/2", "assay": "IGF-I receptor signaling in SaOS-2 cells (Western blots, phospho-Akt and phospho-Erk1/2)", "format": "cell-based, human"}, "MCF-7 (breast) cells": {"tested_on": "MCF-7 (breast) cells", "assay": "Growth and survival of MCF-7 cells (MTT assay)", "format": "cell-based, human", "description": "as §1"}, "NCI-H838 (lung) cells": {"tested_on": "NCI-H838 (lung) cells", "assay": "Growth and survival of NCI-H838 cells (MTT assay)", "format": "cell-based, human", "description": "as §1"}, "Colo 205 (colon) cells": {"tested_on": "Colo 205 (colon) cells", "assay": "Growth and survival of Colo 205 cells (MTT assay)", "format": "cell-based, human", "description": "as §1"}, "[4]": {"tested_on": "A-673 human rhabdomyosarcoma/Ewing's sarcoma xenografts", "assay": "A-673 xenograft in mice", "details": "mouse, in vivo"}, "[5]": {"tested_on": "insulin receptor substrate-1 (IRS-1)", "assay": "IGF-I-stimulated IRS-1 phosphorylation in MCF-7 cells (ELISA, associated p85 PI-3-kinase)", "format": "cell-based, human", "description": "In FIG. 5, MCF-7 cells were treated with 5 μg/mL antibody (EM164 or IR3) in serum-free medium for 2 h, followed by stimulation with 50 ng/mL IGF-I for 10 min at 37° C. Anti-IRS-1 antibody (rabbit polyclonal; Upstate Biotechnology) was indirectly captured by incubation with coated goat-anti-rabbit-IgG antibody on an ELISA plate, which was then used to capture IRS-1 from the cell lysate samples by overnight incubation at 4° C. The wells were then incubated with mouse monoclonal anti-p85-PI-3-kinase antibody (Upstate Biotechnology) for 4 h, followed by treatment with goat-anti-mouse-IgG-antibody-HRP conjugate for 30 min. The wells were then washed and detected using ABTS/H2O2 substrate (FIG. 5)."}, "A 375 (melanoma) cells": {"tested_on": "A 375 (melanoma) cells", "assay": "Growth and survival of A 375 cells (MTT assay)", "format": "cell-based, human", "description": "as §1"}, "[6]": {"tested_on": "Human non-small cell lung cancer Calu-6 xenografts", "format": "in vivo", "source_text": "Human non-small cell lung cancer Calu-6 xenografts were established in immunodeficient mice by subcutaneous injections of 1×10^7 Calu-6 cells."}, "[7]": {"details": "5-10 μg/mL EM164, 10 ng/mL IGF-I"}, "[8]": {"details": "5-10 μg/mL EM164, MTT or colony formation assay"}}}
{"molecule": "EM164: murine anti-IGF-I receptor monoclonal antibody, IgG1 with kappa light chain, hybridoma ATCC PTA-4457; heavy SEQ ID NO:7, light SEQ ID NO:8 (antibody, antibody heavy chain; antibody light chain) heavy: QVQLQQSGAELVKPGASVKLSCKASGYTFTSYWMHWVKQRPGQGLEWIGEINPSNGRTNYNEKFKRKATLTVDKSSSTAYMQLSSLTSEDSAVYYFARGRPDYYGSSKWYFDVWGAGTTVTVSS light: DVLMTQTPLSLPVSLGDQASISCRSSQSIVHSNVNTYLEWYLQKPGQSPKLLIYKVSNRFSGVPDRFSGSGSGTDFTLRISRVEAEDLGIYYCFQGSHVPPTFGGGTKLEIKR", "values": [{"measurement": "fluorescence shift (FACS)", "setting": "human IGF-I receptor", "value": "strong fluorescence shift"}, {"measurement": "Inhibition by EM164 antibody of IGF-I-stimulated growth in serum-free medium", "setting": "[1]; [7]", "value": 100, "unit": "%"}, {"measurement": "% Inhibition by EM164 antibody of Growth/survival of cells in 1.25-10% serum", "setting": "[1]; [8]", "value": "Yes"}, {"measurement": "binding to IGF-I receptor (immunoprecipitation)", "setting": "[2]", "value": "did not bind"}, {"measurement": "displacement of pre-bound biotinylated IGF-I", "setting": "[3]; 4° C., 2 h", "value": "about 50%"}, {"measurement": "displacement of pre-bound biotinylated IGF-I", "setting": "[3]; 37° C., within 30 min", "value": 90, "unit": "%"}, {"measurement": "displacement of pre-bound biotinylated IGF-I", "setting": "[3]; 37° C., within 4 h", "value": "~100", "unit": "%"}, {"measurement": "cells in the G0/G1 phase", "setting": "MCF-7 cells", "value": 77, "unit": "%"}, {"measurement": "cells in the S phase", "setting": "MCF-7 cells", "value": 9, "unit": "%"}, {"measurement": "EGF-stimulated phosphorylation of Erk1/2", "setting": "Akt and Erk1/2", "value": "did not inhibit"}, {"measurement": "intracellular IGF-I receptor signaling", "setting": "Akt and Erk1/2", "value": "almost completely inhibited"}, {"measurement": "activation of Akt and Erk1/2", "setting": "Akt and Erk1/2; IGF-I stimulated", "value": "inhibited in a dose-dependent manner"}, {"measurement": "inhibition of growth and survival of MCF-7 cells over a range of serum concentrations", "setting": "MCF-7 (breast) cells; 0.04-10% serum, FIG. 8", "value": "equally effective"}, {"measurement": "IGF-1- or serum-stimulated growth and survival of MCF-7 cells", "setting": "MCF-7 (breast) cells; FIGS. 7 and 8", "value": "strongly inhibited"}, {"measurement": "% Inhibition by EM164 antibody of Growth/survival of cells in 1.25-10% serum", "setting": "MCF-7 (breast) cells; MCF-7 (breast), 5-10 μg/mL EM164", "value": 85, "unit": "%"}, {"measurement": "Inhibition by EM164 antibody of IGF-I-stimulated growth in serum-free medium", "setting": "MCF-7 (breast) cells; MCF-7 (breast), 5-10 μg/mL EM164, 10 ng/mL IGF-I", "value": 100, "unit": "%"}, {"measurement": "inhibition of serum-stimulated growth", "setting": "MCF-7 (breast) cells; MCF-7 cells, in the presence of serum", "value": "greater than 80%"}, {"measurement": "IGF-II-stimulated growth and survival of MCF-7 cells", "setting": "MCF-7 (breast) cells; separate experiment", "value": "strongly inhibited"}, {"measurement": "% Inhibition by EM164 antibody of Growth/survival of cells in 1.25-10% serum", "setting": "NCI-H838 (lung) cells; NCI-H838 (lung), 5-10 μg/mL EM164", "value": "85-90%"}, {"measurement": "Inhibition by EM164 antibody of IGF-I-stimulated growth in serum-free medium", "setting": "NCI-H838 (lung) cells; NCI-H838 (lung), 5-10 μg/mL EM164, 10 ng/mL IGF-I", "value": 100, "unit": "%"}, {"measurement": "inhibition of serum-stimulated growth", "setting": "NCI-H838 (lung) cells; NCI-H838 cells", "value": "greater than 80%"}, {"measurement": "IGF-1- and serum-stimulated growth and survival of NCI-H838", "setting": "NCI-H838 (lung) cells; compared to a control anti-B4 antibody, FIG. 9", "value": "strongly inhibited"}, {"measurement": "Inhibition by EM164 antibody of IGF-I-stimulated growth in serum-free medium", "setting": "Colo 205 (colon) cells; [7]", "value": 50, "unit": "%"}, {"measurement": "% Inhibition by EM164 antibody of Growth/survival of cells in 1.25-10% serum", "setting": "Colo 205 (colon) cells; [8]", "value": "Yes"}, {"measurement": "growth of established A-673 xenografts", "setting": "[4]", "value": "significant growth delay"}, {"measurement": "inhibition of IGF-1-stimulated IRS-1 phosphorylation", "setting": "[5]; 5 μg/mL antibody 2 h, 50 ng/mL IGF-I 10 min, compared with IR3", "value": "more effective"}, {"measurement": "agonistic activity on IRS-1 phosphorylation", "setting": "[5]; in the absence of IGF-I", "value": "did not show any agonistic activity"}, {"measurement": "Inhibition by EM164 antibody of IGF-I-stimulated growth in serum-free medium", "setting": "A 375 (melanoma) cells; [7]", "value": 90, "unit": "%"}, {"measurement": "% Inhibition by EM164 antibody of Growth/survival of cells in 1.25-10% serum", "setting": "A 375 (melanoma) cells; [8]", "value": "No"}, {"measurement": "toxicity based on weights of the mice", "setting": "[6]; EM164 6 injections of 0.8 mg/mouse, i.v.", "value": "No toxicity"}, {"measurement": "growth of tumors", "setting": "[6]; established 100 mm^3 Calu-6 xenografts, EM164 0.8 mg/mouse i.v. x6, taxol 15 mg/kg i.p. x5", "value": "significantly slowed"}]}
